Data: patent publication US20070071746A1 (AstraZeneca / MedImmune, published 2007)

T1: human YKL-39 (human, UniProt Q15782 27-390)
T1 construct: Recombinant from HEK293; non-tagged versions also made; also called hYKL-39; chondrocyte protein 39
T1 sequence: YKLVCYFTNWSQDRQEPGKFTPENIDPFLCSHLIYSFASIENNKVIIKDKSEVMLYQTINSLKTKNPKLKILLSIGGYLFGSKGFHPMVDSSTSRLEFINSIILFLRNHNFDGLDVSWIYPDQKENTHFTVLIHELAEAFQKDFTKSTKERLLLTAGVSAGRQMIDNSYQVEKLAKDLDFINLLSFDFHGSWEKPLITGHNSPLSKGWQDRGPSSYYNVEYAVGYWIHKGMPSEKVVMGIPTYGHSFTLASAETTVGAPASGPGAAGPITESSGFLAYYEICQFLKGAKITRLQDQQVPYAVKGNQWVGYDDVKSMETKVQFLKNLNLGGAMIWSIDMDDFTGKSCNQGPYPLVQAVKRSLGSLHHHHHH

B1: human galectin-4 (other, UniProt P56470 1-323, looked up)
chain: MAYVPAPGYQPTYNPTLPYYQPIPGGLNVGMSVYIQGVASEHMKRFFVNFVVGQDPGSDVAFHFNPRFDGWDKVVFNTLQGGKWGSEERKRSMPFKKGAAFELVFIVLAEHYKVVVNGNPFYEYGHRLPLQMVTHLQVDGDLQLQSINFIGGQPLRPQGPPMMPPYPGPGHCHQQLNSLPTMEGPPTFNPPVPYFGRLQGGLTARRTIIIKGYVPPTGKSFAINFKVGSSGDIALHINPRMGNGTVVRNSLLNGSWGSEEKKITHNPFGPGQFFDLSIRCGLDRFKVYANGQHLFDFAHRLSAFQRVDTLEIQGDVTLSYVQI
notes: also called gal-4
B2: human acidic mammalian chitinase (AMCase), full length (enzyme)
chain: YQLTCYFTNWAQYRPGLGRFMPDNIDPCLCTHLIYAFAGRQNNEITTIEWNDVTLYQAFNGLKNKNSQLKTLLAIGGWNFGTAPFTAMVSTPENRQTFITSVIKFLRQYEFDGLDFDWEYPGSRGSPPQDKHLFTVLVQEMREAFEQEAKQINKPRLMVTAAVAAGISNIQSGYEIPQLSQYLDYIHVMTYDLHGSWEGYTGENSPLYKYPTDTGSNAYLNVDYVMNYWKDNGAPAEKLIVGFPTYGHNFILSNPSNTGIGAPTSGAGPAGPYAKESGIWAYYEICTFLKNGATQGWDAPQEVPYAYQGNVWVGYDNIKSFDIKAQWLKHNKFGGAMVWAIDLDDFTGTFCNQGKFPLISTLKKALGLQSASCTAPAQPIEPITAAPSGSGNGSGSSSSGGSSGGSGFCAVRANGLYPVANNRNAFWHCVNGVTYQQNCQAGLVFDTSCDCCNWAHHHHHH
notes: Recombinant from HEK293; non-tagged versions also made; Biotin labeled in the galectin ELISA; also called hAMCase; human AMCase
B3: human AMCase C-terminally truncated, lacking the chitin binding domain (enzyme)
chain: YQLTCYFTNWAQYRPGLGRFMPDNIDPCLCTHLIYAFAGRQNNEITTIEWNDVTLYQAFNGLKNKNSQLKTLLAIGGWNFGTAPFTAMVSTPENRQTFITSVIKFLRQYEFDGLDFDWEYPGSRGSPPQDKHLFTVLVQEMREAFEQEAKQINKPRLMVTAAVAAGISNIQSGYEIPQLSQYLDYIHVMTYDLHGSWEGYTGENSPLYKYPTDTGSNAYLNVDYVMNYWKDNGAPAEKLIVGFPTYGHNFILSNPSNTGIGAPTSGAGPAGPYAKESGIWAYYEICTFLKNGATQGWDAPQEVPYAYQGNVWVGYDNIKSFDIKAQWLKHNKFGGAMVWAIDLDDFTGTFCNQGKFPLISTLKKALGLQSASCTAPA
notes: Biotin labeled in the galectin ELISA; also called hAMCase TR
B4: galectin 2 (other, UniProt P05162 1-132, looked up)
chain: MTGELEVKNMDMKPGSTLKITGSIADGTDGFVINLGQGTDKLNLHFNPRFSESTIVCNSLDGSNWGQEQREDHLCFSPGSEVKFTVTFESDKFKVKLPDGHELTFPNRLGHSHLSYLSVRGGFNMSSFKLKE
B5: galectin 8 (other, UniProt O00214 1-317, looked up)
chain: MMLSLNNLQNIIYNPVIPFVGTIPDQLDPGTLIVIRGHVPSDADRFQVDLQNGSSMKPRADVAFHFNPRFKRAGCIVCNTLINEKWGREEITYDTPFKREKSFEIVIMVLKDKFQVAVNGKHTLLYGHRIGPEKIDTLGIYGKVNIHSIGFSFSSDLQSTQASSLELTEISRENVPKSGTPQLRLPFAARLNTPMGPGRTVVVKGEVNANAKSFNVDLLAGKSKDIALHLNPRLNIKAFVRNSFLQESWGEEERNITSFPFSPGMYFEMIIYCDVREFKVAVNGVHSLEYKHRFKELSSIDTLEINGDIHLLEVRSW
notes: also called LGALS8
B6: M5 (antibody, V domains shown)
VH: EVQLLESGGGLVQPGGSLRLSCAASGFTFSKYLMQWVRQAPGKGLEWVSSIVPSGGETVYADSVKGRFTISRDNSKNTLYLQMNSLRAEDTAVYYCARSGTYGASRYWGQGTLVTVSS
VL: DIQMTQSPLSLSVSVGQSASISCRSSHSLLYSDGNTYINWFHQRPGQSPRRLIHMVSKRDSGVPDRFSGSGSGTDFTLKISRAEAEDVGVYYCMQATYFPLTFGGGTRVEIK
notes: Fully human anti-AMCase antibody from a phage display library, converted to full length IgG
B7: mouse galectin-3 (other, UniProt P16110 2-264, looked up)
chain: ADSFSLNDALAGSGNPNPQGYPGAWGNQPGAGGYPGAAYPGAYPGQAPPGAYPGQAPPGAYPGQAPPSAYPGPTAPGAYPGPTAPGAYPGQPAPGAFPGQPGAPGAYPQCSGGYPAAGPYGVPAGPLTVPYDLPLPGGVMPRMLITIMGTVKPNANRIVLDFRRGNDVAFHFNPRFNENNRRVIVCNTKQDNNWGKEERQSAFPFESGKPFKIQVLVEADHFKVAVNDAHLLQYNHRMKNLREISQLGISGDITLTSANHAMI
notes: also called mGal-3
B8: mouse galectin-4 (other, UniProt Q8K419 1-326, looked up)
chain: MAYVPAPGYQPTYNPTLPYKRPIPGGLSVGMSVYIQGMAKENMRRFHVNFAVGQDDGADVAFHFNPRFDGWDKVVFNTMQSGQWGKEEKKKSMPFQKGKHFELVFMVMPEHYKVVVNGNSFYEYGHRLPVQMVTHLQVDGDLELQSINFLGGQPAAAPYPGAMTIPAYPAGSPGYNPPQMNTLPVMTGPPVFNPRVPYVGALQGGLTVRRTIIIKGYVLPTARNFVINFKVGSSGDIALHLNPRIGDSVVRNSFMNGSWGAEERKVAYNPFGPGQFFDLSIRCGMDRFKVFANGQHLFDFSHRFQAFQMVDTLEINGDITLSYVQI
notes: also called mGal-4
B9: M1 (antibody, V domains shown)
VH: EVQLLESGGGLVQPGGSLRLSCAASGFTFSTYGMDWVRQAPGKGLEWVSYISPSGGYTMYADSVKGRFTISRDNSKNTLYLQMNSLRAEDTAVYYCARHSPRSAGANAFDIWGQGTMVTVSS
VL: DIQMTQSPATLSVSPGERATLSCRASQSVSSNLAWYQQKPGQAPRLLIYGASTRATGIPARFSGSGSGTEFTLTISSLQSEDFAVYYCQQYGSSLWTFGQGTKVEIK
notes: Fully human anti-AMCase antibody from phage display, converted to full length IgG

How the values were obtained:
[1] = target: B2; assay: ELISA: galectin immobilised on the plate, serial dilutions of biotin-labelled AMCase, streptavidin-HRP, TMB, A450
Experimental: (§1) C/CLP-Galectin Interaction ELISA: Galectin is immobilized on a microtiter plate in DPBS over night at 2-8° C. The plates are then washed with DPBS, 0.1% Tween 20 and blocked for 1 hour at room temperature. Serial dilutions of biotin labeled AMCase are added to each well and incubated for ˜1 hour at room temperature followed by HRP labeled streptavidin. Horseradish peroxydase activity is detected with TMB substrate (KPL, MD) and the reaction is quenched with 1% H2SO4. The absorbance is read at 450 nm.

[2] = target: T2, human galectin-3 (human, UniProt P17931 2-250); assay: as above
T2 construct: also called gal-3; LGALS3
T2 sequence (P17931 2-250 limits assumed): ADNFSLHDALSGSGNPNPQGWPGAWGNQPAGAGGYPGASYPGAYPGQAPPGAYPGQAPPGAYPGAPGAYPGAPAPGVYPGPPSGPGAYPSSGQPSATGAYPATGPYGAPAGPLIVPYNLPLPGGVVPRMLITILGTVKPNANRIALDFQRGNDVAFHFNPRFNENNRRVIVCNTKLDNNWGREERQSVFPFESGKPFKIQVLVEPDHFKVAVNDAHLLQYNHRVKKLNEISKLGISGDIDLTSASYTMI
Experimental: as §1

[3] = target: B1; assay: as above
Experimental: as §1

[4] = target: B3; assay: ELISA: galectin immobilised on the plate, serial dilutions of biotin-labelled C-terminally truncated human AMCase, A450
Experimental: as §1

[5] = target: B2; assay: ELISA: galectin immobilised on the plate, serial dilutions of biotin-labelled full length human AMCase, A450
Experimental: as §1

[6] = target: T3, human YKL-40 (human, UniProt P36222 22-383); assay: ELISA
T3 construct: Recombinant from HEK293; non-tagged versions also made; also called hYKL-40; chitinase 3-like 1
T3 sequence (P36222 other isoform, or with tags, fused parts or gaps limits assumed): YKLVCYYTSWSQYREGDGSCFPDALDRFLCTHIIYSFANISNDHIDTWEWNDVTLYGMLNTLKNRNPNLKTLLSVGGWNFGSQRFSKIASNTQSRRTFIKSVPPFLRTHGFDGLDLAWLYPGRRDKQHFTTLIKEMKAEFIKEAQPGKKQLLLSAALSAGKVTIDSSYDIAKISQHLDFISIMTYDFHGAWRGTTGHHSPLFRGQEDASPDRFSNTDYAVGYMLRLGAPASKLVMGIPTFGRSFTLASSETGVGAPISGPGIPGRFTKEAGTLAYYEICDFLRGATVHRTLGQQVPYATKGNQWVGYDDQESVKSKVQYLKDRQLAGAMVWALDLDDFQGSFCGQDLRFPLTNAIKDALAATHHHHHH

[7] = target: T4, mouse AMCase truncated form lacking the C-terminal chitin binding domain (mouse, UniProt Q91XA9 22-398, limits assumed); assay: ELISA
T4 construct: also called mAMCase TR
T4 sequence (Q91XA9 22-398 limits assumed): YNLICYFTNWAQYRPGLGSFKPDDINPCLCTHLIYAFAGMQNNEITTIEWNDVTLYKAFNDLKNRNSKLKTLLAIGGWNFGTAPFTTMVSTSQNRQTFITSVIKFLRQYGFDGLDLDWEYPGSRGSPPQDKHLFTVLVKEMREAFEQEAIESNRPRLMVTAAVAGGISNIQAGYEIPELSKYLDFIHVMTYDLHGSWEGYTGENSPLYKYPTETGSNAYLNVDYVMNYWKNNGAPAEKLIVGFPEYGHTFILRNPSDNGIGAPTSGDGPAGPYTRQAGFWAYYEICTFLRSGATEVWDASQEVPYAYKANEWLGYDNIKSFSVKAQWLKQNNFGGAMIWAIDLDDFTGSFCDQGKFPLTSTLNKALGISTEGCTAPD

[8] = target: T5, human chitotriosidase (human, UniProt Q13231 22-466); assay: ELISA
T5 construct: Recombinant from HEK293; non-tagged versions also made; also called hChT; ChT
T5 sequence (Q13231 other isoform, or with tags, fused parts or gaps limits assumed): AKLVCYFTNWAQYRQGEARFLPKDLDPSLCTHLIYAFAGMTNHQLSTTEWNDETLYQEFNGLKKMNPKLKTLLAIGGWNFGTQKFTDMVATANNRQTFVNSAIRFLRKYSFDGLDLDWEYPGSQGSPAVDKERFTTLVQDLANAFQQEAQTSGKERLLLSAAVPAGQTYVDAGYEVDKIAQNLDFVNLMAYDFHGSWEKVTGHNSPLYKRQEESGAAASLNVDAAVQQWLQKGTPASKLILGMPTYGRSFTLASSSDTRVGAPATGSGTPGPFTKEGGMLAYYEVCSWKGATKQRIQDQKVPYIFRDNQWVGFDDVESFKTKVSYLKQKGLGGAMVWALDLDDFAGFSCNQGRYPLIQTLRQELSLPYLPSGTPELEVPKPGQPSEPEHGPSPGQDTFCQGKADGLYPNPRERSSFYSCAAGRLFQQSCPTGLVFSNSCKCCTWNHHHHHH

[9] = target: B3; assay: ELISA
[10] = target: T6, mouse YKL-40/BRP-39 (mouse, UniProt Q61362 30-389); assay: ELISA
T6 construct: Recombinant from HEK293; non-tagged versions also made; also called mYKL40/BRP39; mYKL-40
T6 sequence (Q61362 other isoform, or with tags, fused parts or gaps limits assumed): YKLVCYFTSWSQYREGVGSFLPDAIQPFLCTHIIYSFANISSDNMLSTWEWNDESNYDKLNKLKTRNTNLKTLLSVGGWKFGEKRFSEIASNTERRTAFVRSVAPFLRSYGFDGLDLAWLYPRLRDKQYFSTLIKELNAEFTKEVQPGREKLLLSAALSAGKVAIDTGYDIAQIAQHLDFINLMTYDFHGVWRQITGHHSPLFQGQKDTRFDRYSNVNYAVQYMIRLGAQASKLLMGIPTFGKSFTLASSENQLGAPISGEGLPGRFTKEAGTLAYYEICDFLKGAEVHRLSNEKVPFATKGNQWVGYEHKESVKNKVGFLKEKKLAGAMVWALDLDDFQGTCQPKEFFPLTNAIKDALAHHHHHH

[11] = target: T7, mouse chitotriosidase (mouse, UniProt Q9D7Q1 22-464); assay: ELISA
T7 construct: Recombinant from HEK293; non-tagged versions also made; also called mChT; mouse ChT
T7 sequence (Q9D7Q1 other isoform, or with tags, fused parts or gaps limits assumed): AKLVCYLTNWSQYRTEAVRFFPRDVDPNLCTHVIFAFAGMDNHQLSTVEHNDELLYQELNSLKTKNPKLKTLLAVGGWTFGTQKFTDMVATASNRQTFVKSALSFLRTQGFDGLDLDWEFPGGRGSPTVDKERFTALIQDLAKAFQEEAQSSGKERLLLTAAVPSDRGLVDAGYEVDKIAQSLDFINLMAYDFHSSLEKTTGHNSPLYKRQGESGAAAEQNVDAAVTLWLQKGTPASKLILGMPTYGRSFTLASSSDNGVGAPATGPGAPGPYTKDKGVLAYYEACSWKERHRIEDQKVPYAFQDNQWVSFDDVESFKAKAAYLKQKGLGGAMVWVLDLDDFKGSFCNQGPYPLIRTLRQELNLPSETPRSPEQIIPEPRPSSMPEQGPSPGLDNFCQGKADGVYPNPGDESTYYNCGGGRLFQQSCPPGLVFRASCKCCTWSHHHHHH

[12] = target: T1, human YKL-39; assay: ELISA
[13] = target: B2; assay: ELISA
[14] = target: T8, mouse acidic mammalian chitinase (AMCase), full length (mouse, UniProt Q91XA9 22-473); assay: ELISA; +++ = 2.50 to 3.99 OD at 62.5 ng/ml
T8 construct: Recombinant, secreted from HEK293 cells and purified by its His tag; Biotin labeled in the galectin ELISA; also called mAMCase; mouse AMCase
T8 sequence (Q91XA9 other isoform, or with tags, fused parts or gaps limits assumed): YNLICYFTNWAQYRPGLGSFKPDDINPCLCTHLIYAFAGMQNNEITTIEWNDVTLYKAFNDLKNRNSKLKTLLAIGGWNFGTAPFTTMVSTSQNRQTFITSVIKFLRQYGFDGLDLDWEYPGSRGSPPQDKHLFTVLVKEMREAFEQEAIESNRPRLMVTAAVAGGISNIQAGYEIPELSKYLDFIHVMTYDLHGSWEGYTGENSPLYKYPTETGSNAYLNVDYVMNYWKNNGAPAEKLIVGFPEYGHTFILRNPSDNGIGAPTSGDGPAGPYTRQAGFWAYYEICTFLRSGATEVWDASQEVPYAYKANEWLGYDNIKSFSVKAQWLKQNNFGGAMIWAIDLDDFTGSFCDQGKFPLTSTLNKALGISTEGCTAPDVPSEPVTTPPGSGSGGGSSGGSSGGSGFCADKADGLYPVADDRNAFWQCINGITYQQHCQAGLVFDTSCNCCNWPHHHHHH

[15] = target: T9, mouse AMCase D136A (mouse, UniProt Q91XA9 22-473); assay: ELISA; +++ = 2.50 to 3.99 OD at 62.5 ng/ml
T9 construct: Full length point mutant without chitinase activity; also called mAMCase D136A
T9 sequence (Q91XA9 22-473 D136A limits assumed): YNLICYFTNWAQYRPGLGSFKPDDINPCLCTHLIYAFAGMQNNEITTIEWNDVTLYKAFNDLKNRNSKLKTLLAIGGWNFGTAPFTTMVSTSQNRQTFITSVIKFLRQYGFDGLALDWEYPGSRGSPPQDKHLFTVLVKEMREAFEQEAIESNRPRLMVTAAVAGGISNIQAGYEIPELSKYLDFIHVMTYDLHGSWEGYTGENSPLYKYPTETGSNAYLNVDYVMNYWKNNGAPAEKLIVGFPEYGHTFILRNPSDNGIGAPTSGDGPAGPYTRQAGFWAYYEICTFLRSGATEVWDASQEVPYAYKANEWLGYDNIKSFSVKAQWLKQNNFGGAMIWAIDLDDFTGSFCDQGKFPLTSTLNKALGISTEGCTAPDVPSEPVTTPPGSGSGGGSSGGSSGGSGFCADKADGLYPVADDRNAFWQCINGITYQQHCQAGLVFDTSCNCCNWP

[16] = target: T10, mouse AMCase E140A (mouse, UniProt Q91XA9 22-473); assay: ELISA; +++ = 2.50 to 3.99 OD at 62.5 ng/ml
T10 construct: Full length point mutant without chitinase activity; also called mAMCase E140A
T10 sequence (Q91XA9 22-473 E140A limits assumed): as the sequence (Q91XA9 22-473 D136A limits assumed) above, with A115D, E119A counted along it

[17] = target: T8, mouse acidic mammalian chitinase …; assay: ELISA (data not shown)
[18] = target: T11, Ym1 (mouse, UniProt O35744 22-398); assay: ELISA
T11 construct: Recombinant from HEK293; non-tagged versions also made; also called chitinase 3-like 3; ECF-L
T11 sequence (O35744 other isoform, or with tags, fused parts or gaps limits assumed): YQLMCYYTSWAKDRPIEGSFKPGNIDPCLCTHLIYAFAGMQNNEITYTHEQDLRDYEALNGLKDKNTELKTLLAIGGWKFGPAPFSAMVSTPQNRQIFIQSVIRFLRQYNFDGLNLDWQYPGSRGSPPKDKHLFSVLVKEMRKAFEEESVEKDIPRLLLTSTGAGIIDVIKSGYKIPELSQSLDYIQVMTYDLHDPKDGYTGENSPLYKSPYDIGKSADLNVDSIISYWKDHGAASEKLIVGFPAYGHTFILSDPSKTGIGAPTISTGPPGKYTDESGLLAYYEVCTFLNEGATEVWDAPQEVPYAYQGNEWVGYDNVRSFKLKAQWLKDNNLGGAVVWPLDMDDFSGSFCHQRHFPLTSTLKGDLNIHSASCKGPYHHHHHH

[19] = target: T12, Ym2 (mouse, UniProt Q91Z98 22-402); assay: ELISA
T12 construct: Recombinant from HEK293; non-tagged versions also made; also called chitinase 3-like 4
T12 sequence (Q91Z98 other isoform, or with tags, fused parts or gaps limits assumed): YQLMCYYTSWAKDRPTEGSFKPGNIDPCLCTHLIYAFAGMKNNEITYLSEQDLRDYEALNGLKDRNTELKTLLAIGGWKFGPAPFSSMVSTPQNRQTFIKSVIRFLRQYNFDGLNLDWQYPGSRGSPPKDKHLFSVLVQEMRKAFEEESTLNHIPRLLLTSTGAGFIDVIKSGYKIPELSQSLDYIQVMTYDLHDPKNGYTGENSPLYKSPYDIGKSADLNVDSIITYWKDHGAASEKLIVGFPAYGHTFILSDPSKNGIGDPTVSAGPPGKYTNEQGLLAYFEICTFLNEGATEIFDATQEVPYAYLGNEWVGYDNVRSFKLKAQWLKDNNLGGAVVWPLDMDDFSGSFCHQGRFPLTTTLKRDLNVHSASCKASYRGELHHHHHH

Binder: B1
- binding result [1]: binds

Binder: B2
- EC50 (read off the curve) [2]: ~0.06 µg/mL

Binder: B3
- EC50 (read off the curve) [3]: ~0.1 µg/mL

Binder: B4
- binding result [4]: no binding (tested: 10 ug/ml)
- binding result [5]: no binding (tested: 10 ug/ml)

Binder: B5
- binding result [4]: no binding (tested: 10 ug/ml)

Binder: B6
- binding result [6]: no binding
- binding result [7]: no binding
- binding result [8]: no binding
- binding result [9]: no binding
- binding result [10]: no binding
- binding result [11]: no binding
- binding result [12]: no binding
- binding result [13]: no binding
- ELISA OD at 62.5 ng/ml antibody [14]: 2.5 to 3.99 od
- ELISA OD at 62.5 ng/ml antibody [15]: 2.5 to 3.99 od
- ELISA OD at 62.5 ng/ml antibody [16]: 2.5 to 3.99 od

Binder: B7
- binding result [17]: binds

Binder: B8
- binding result [17]: binds

Binder: B9
- binding result [18]: no binding
- binding result [6]: no binding
- binding result [7]: no binding
- binding result [19]: no binding
- binding result [8]: no binding
- binding result [9]: no binding
- binding result [10]: no binding
- binding result [11]: no binding
- binding result [12]: no binding
- binding result [13]: no binding
